According to PMC11515964:

Biological target: T1, Full-length human GPR1, wild type, N-terminal FLAG tag (pcDNA3.1(+)) (human) (UniProt P46091)
T1 sequence: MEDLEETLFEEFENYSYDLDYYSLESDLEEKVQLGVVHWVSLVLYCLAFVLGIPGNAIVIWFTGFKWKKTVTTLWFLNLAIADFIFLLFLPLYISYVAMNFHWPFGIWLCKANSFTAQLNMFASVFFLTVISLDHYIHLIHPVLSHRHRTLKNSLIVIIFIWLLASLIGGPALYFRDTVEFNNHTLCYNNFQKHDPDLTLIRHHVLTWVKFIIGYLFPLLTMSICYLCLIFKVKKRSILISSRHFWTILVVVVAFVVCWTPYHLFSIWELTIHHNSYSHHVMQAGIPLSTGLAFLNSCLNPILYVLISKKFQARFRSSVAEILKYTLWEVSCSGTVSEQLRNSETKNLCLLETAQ

B1: Full-length chemerin (abcam, ab256228) (ligand)
chain: ELTEAQRRGLQVALEEFHKHPPVQWAFQETSVESAVDTPFPAGIFVRLEFKLQQTSCRKRDWKKPECKVRPNGRKRKCLACIKLGSEDKVLGRLVHCPIETQVLREAEEHQETQCLRVQRAGEDPHSFYFPGQFAFS
EC50 of cAMP inhibition (HeLa) and NanoBiT G protein dissociation (HEK293T): 0.1 nM
